biological target: T1, HLA-A*02:01 (human); experiment: UV-ligand exchange, anti-β2m ELISA; grade of peptide exchange yield
T1 construct: the tested peptide takes its place; also called peptide-receptive MHC molecules; MHC class I
How it was run: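 Peptide-HLA-A*02:01 complexes were formed by UV-induced exchange of a photocleavable ligand. Exchange products, diluted 100-fold, were captured on streptavidin plates, detected with HRP anti-β2m (1 h, 37° C) and TMB at 450 nm; yield was quantified against refolded HLA-A*02:01/MLA-001 standards (15-500 ng/ml).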

| Binder | peptide exchange yield |
| --- | --- |
| VVYDDSTGLIRL [VVYDDSTGLIRL (SEQ ID NO: 81)] | 50 to 75% |
| YLTNEGIAHL [YLTNEGIAHL (SEQ ID NO: 92)] | ≥ 75% |
| ALSKEIYVI [ALSKEIYVI (SEQ ID NO: 83)] | 50 to 75% |
| LLFNDVQTL [LLFNDVQTL (SEQ ID NO: 91)] | 50 to 75% |
| ALVEENGIFEL [ALVEENGIFEL (SEQ ID NO: 101)] | 50 to 75% |
| ALYTGSALDFV [ALYTGSALDFV (SEQ ID NO: 8)] | 50 to 75% |
| SIDSEPALV [SIDSEPALV (SEQ ID NO: 93)] | 50 to 75% |
| FILPIGATV [FILPIGATV (SEQ ID NO: 84)] | ≥ 75% |
| IIDDTIFNL [IIDDTIFNL (SEQ ID NO: 88)] | 50 to 75% |
| ALAPATGGGSLLL [ALAPATGGGSLLL (SEQ ID NO: 96)] | 50 to 75% |
| ALYPGTDYTV [ALYPGTDYTV (SEQ ID NO: 102)] | 50 to 75% |
| ALDQKVRSV [ALDQKVRSV (SEQ ID NO: 98)] | 20 to 50% |
| GLLPALVAL [GLLPALVAL (SEQ ID NO: 87)] | 50 to 75% |
| KLLTPITTL [KLLTPITTL (SEQ ID NO: 90)] | 50 to 75% |

Further lines, results first:

| peptide exchange yield | Binder |
| --- | --- |
| 50 to 75% | ALIAEGIAL [ALIAEGIAL (SEQ ID NO: 82)] |
| ≥ 75% | GLGDFIFYSV [GLGDFIFYSV (SEQ ID NO: 86)] |
| 50 to 75% | KLADIQIEQL [KLADIQIEQL (SEQ ID NO: 89)] |
| 50 to 75% | ALFGAGPASI [ALFGAGPASI (SEQ ID NO: 100)] |
| 50 to 75% | AVAAVLTQV [AVAAVLTQV (SEQ ID NO: 103)] |
| 50 to 75% | ALADDDFLTV [ALADDDFLTV (SEQ ID NO: 95)] |
| ≥ 75% | FLSDGTIISV [FLSDGTIISV (SEQ ID NO: 85)] |
| 20 to 50% | QIIDAINKV [QIIDAINKV (SEQ ID NO: 9)] |
| 50 to 75% | ALESFLKQV [ALESFLKQV (SEQ ID NO: 99)] |
| 50 to 75% | LLPGTEYVVSV [LLPGTEYVVSV (SEQ ID NO: 80)] |
| 50 to 75% | VMMEEFVQL [VMMEEFVQL (SEQ ID NO: 94)] |
| 50 to 75% | ALDDMISTL [ALDDMISTL (SEQ ID NO: 97)] |

Source: patent US20160368965A1 (IMMATICS BIOTECHNOLOGIES, published 2016)
